Assay results as given in US11220526B2, “Neuropeptide S receptor (NPSR) agonists” (Research Triangle Institute, priority 2016, dated 2022).
Square brackets hold non-standard residues; d marks the D form. Peptide text beside a SMILES is read from it. * marks the point of attachment. Phe(4-Cl) = N[C@@H](Cc1ccc(Cl)cc1)C(=O)O; Lys(Me2) = CN(C)CCCC[C@H](N)C(=O)O; Bz = O=C(c1ccccc1)*

Columns and labels:
NPSR = target: T1, NPSR (Homo sapiens, UniProt Q6W5P4); conditions: Bernier et al. 2006; cited from earlier work
T1 sequence (Q6W5P4 1-371): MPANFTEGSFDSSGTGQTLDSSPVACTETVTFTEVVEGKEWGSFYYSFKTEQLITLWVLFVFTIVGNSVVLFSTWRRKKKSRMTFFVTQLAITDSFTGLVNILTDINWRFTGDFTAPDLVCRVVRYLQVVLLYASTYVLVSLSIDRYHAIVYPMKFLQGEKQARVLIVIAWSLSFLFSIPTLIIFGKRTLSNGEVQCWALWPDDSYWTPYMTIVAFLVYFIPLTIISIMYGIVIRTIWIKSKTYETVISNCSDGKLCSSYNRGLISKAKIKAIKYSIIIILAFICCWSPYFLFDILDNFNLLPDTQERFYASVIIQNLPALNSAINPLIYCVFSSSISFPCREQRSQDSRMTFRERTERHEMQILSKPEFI

C57BL/6 mice = assay: Locomotor activity (horizontal, vertical, stereotypic) after i.c.v. injection; assay type: in vivo
Procedure: Male C57BL/6 mice (National Cancer Institute, Bethesda, Md., or Charles River Laboratories, Wilmington, Mass.), age 8-12 weeks, were group-housed (4 animals per cage) under controlled conditions (temperature 21 f 2° C.; relative humidity 50-60%; 12-hour light-dark cycle, lights on 6:00 AM) with free access to food and water. For intracerebroventricular (i.c.v.) drug injections, mice were briefly anesthetized with isofluorane. NPS was dissolved in phosphate-buffered saline (PBS, pH 7.4) containing 0.1% bovine serum albumin and injected i.c.v. (total volume: 2 μl) as described before (Xu et al., 2004). NPSR antagonist compounds were dissolved in PBS containing 10% Cremophor EL (Sigma) and 100 μl were injected intraperitoneally (i.p.).
Locomotion of mice was monitored in an automated activity system equipped with infrared sensors for both horizontal and vertical activity measurements (Versamax, Accuscan Inc., Columbus, Ohio). Male C57BL/6 mice were allowed to habituate to the recording chamber for 1 h. Vehicle or NPSR antagonist compound (in PBS, 10% cremophor EL) were injected i.p. 10 minutes before central administration of either NPS (1 nmole in 2 μl PBS, 0.1% BSA) or vehicle (PBS, 0.1% BSA). […] Horizontal activity represents infrared beam breaks in the X and Y dimension, while vertical activity was recorded by infrared sensors located 8 cm above the chamber floor (Z dimension). […]

NPSR-C-Alt = target: T2, NPSR-C-Alt (Homo sapiens, UniProt Q6W5P4); conditions: functional assay; cited from earlier work
T2 sequence (Q6W5P4 1-377 isoform Q6W5P4-4): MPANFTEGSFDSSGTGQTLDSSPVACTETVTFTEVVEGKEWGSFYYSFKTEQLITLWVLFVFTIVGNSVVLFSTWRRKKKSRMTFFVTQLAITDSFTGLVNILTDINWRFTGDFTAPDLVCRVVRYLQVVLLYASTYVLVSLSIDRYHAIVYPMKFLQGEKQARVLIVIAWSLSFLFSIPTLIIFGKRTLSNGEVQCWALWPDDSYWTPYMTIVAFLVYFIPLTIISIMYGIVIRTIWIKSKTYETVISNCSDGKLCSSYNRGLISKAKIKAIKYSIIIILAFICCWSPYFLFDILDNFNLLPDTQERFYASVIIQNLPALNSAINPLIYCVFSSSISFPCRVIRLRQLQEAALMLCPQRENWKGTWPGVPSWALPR

[1] = NPS administration; cited from earlier work

Compound | effect of truncation on NPSR activation (NPSR) | further results
peptide 1-6: NPS with the C-terminal 14 residues removed (SFRNGV; Neuropeptide S; UniProt P0C0P6 70-75, looked up, fragment) | limited effect on the potency | 
peptide 2-20: NPS with Ser-1 removed (FRNGVGTGMKKTSFQRAKS; Neuropeptide S; UniProt P0C0P6 71-89, looked up, fragment) | detrimental to function | 
peptide 4-20: NPS with the first three NH2-terminal residues removed (NGVGTGMKKTSFQRAKS; Neuropeptide S; UniProt P0C0P6 73-89, looked up, fragment) | largely inactive | 
O=C(NCCN1CCCCC1)N1CCN2C(=O)OC(c3ccccc3)(c3ccccc3)C2C1 (centres unmarked) [RTI-11817-163] |  | effect on R06039-398 mediated increases in horizontal and vertical activity (C57BL/6 mice; antagonist added to icv R06039-398, mice): reverses
peptide 3-20: NPS with the first two NH2-terminal residues removed (RNGVGTGMKKTSFQRAKS; Neuropeptide S; UniProt P0C0P6 72-89, looked up, fragment) | largely inactive | 
SFRNGVGTGMKKTSFQRAKS [hNPS, 20 residue peptide, endogenous ligand of the neuropeptide S receptor] |  | potency at NPSR-C-Alt versus the 107I variant (NPSR-C-Alt): 30 fold lower; performance in novel recognitions assays [1]: dose-dependently improved performance
CN(C)CCCC[C@H](NC(=O)[C@H](Cc1ccc(Cl)cc1)NC(=O)c1ccccc1)C(=O)N[C@@H](CC(N)=O)C(N)=O [Example R06039-398] (Bz-[Phe(4-Cl)]-[Lys(Me2)]-Asn-NH2) |  | cumulative activities (horizontal, vertical, stereotypic) measured (C57BL/6 mice; icv administration, male C57BL/6 mice, 90 minutes recording): increasing with dose
